Source: patent publication US20210403593A1 (TIZONA THERAPEUTICS, published 2021)

T1: human CD39 (cellular) (human, UniProt P49961 1-510)
T1 construct: Same protein on engineered CHO cells and on cells that express it endogenously; also called hCD39; cellular CD39
T1 sequence: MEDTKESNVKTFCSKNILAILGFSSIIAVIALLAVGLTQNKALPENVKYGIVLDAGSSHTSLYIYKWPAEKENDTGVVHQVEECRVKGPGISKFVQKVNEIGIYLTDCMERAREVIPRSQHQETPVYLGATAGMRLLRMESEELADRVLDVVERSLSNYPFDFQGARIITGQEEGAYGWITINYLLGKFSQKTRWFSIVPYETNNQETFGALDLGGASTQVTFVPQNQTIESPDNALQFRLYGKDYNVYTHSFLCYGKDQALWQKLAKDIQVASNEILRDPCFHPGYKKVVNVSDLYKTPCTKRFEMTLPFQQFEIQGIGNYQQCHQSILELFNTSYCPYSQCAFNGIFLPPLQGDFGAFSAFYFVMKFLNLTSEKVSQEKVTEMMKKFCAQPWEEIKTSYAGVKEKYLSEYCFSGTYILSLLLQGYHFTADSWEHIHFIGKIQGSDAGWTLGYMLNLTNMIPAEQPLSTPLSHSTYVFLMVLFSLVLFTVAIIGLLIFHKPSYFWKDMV

T2: cynomolgus macaque (Macaca fascicularis) CD39 (Macaca fascicularis, UniProt P49961 7-510 (human entry))
T2 construct: On engineered CHO cells and on primary cyno B cells and monocytes; also called cyno CD39; cCD39
T2 chain: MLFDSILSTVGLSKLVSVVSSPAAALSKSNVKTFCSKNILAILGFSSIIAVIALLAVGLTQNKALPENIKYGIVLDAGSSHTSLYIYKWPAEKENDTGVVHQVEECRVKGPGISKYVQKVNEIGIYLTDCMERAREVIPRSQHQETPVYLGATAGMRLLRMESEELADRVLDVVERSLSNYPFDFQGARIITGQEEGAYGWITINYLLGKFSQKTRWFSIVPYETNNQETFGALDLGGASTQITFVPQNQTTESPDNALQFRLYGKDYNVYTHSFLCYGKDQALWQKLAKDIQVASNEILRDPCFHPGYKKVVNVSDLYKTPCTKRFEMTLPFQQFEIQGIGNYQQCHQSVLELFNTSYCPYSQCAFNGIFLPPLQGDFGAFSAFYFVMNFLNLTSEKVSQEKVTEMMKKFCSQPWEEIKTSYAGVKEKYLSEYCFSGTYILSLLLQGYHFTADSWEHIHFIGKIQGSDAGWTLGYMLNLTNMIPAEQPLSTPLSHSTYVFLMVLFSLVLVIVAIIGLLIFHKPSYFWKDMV


Key:
human CD39 (cellular) = target: T1, human CD39 (cellular); experiment: flow cytometry, 100 nM IgG, MFI on CHO-hCD39 / MFI on parental CHO;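 note: cells exposed to IgG for 30 min on ice in PBS, bound antibody then revealed with a fluorescent goat anti-human IgG secondary (20 min, on ice)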
Procedure: (§1) 100 nanomolar IgGs (each antibody is indicated as a unique clone number in the FIG.) were incubated at 25° C. for 30 minutes on ice in phosphate buffered saline (PBS) with parental CHO cells or CHO cells engineered to express either human or cynomolgus macaque (Macaca fascicularis) CD39 (CHO CD39 cells). Cells were then washed with ice cold PBS and incubated with a fluorescently labeled goat-anti-human IgG for 20 minutes on ice. Cells were washed and resuspended in ice cold PBS prior to analysis by flow cytometry.

[1] = target: T2, cynomolgus macaque (Macaca …); experiment: flow cytometry, 100 nM IgG, MFI on CHO-cCD39 / MFI on parental CHO;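 note: antibodies bound to the cells for 30 min in PBS, then bound IgG was revealed with a fluorescent goat anti-human IgG secondary antibody, 20 min on ice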
Procedure: as §1

| Binder | Cell Binding (FOB) (human CD39 (cellular)) [fold over background] | Cell Binding (FOB) [1] [fold over background] |
| --- | --- | --- |
| 27579 (antibody, V domains shown) VH: QVQLVQSGAEVKEPGASVKVSCKAPGYTFTSYYMHWVRQAPGQGLEWMGVINPSGGSTSYAQKFQGRVTMTRDTSTSTVYMELSSLRSEDTAVYYCARGKREGGTEYLRHWGQGTLVTVSS VL: EIVLTQSPGTLSLSPGERATLSCRASQSVSSSYLAWYQQKPGQAPRLLIYGASSRATGIPDRFSGSGSGTDFTLTISRLEPEDFAVYYCQQYHSYITFGGGTKVEIK | 1950 | 2670 |
| 29872 (antibody, V domains shown, also called anti-CD39 antibody 29872) VH: QVQLVQSGAEVKKPGASVKVSCKASGYTFKSYEMHWVRQAPGQGLEWMGRINPSVGSTWYAQKFQGRVTMTRDTSTSTVYMELSSLRSEDTAVYYCARGKREGGTEYLRHWGQGTLVTVSS VL: EIVLTQSPGTLSLSPGERATLSCRASQSVSSSYLAWYQQKPGQAPRLLIYGASSRATGIPDRFSGSGSGTDFTLTISRLEPEDFAVYYCQQYHSYITFGGGTKVEIK | 1450 | 4190 |
| 31421 (antibody, V domains shown) VH: QVQLVQSGAEVKKPGASVKVSCKASGYTFFSYYMYWVRQAPGQGLEWMGVINPLGGGTSYAQKFQGRVTMTRDTSTSTVYMELSSLRSEDTAVYYCARGKREGGTEYLRHWGQGTLVTVSS VL: EIVLTQSPGTLSLSPGERATLSCKASESVSSSYLAWYQQKPGQAPRLLIYYASSRATGIPDRFSGSGSGTDFTLTISRLEPEDFAVYYCQQYHRRITFGGGTKVEIK | 1080 | 3050 |
| 31429 (antibody, V domains shown) VH: QVQLVQSGAEVKKPGASVKVSCKASGYTFVSYFMHWVRQAPGQGLEWMGSINPRGGSTSYAQKFQGRVTMTRDTSTSTVYMELSSLRSEDTAVYYCARGKREGGTEYLRHWGQGTLVTVSS VL: EIVLTQSPGTLSLSPGERATLSCRASQYVSSSYLAWYQQKPGQAPRLLIYYASNRATGIPDRFSGSGSGTDFTLTISRLEPEDFAVYYCQQYHSGITFGGGTKVEIK | 1290 | 3800 |
| 31431 (antibody, V domains shown) VH: QVQLVQSGAEVKKPGASVKVSCKASGYTFTSYQMHWVRQAPGQGLEWMGRINPSGGSTWYAQKFQGRVTMTRDTSTSTVYMELSSLRSEDTAVYYCARGKREGGTEYLRHWGQGTLVTVSS VL: EIVLTQSPGTLSLSPGERATLSCRASQSVASSYLAWYQQKPGQAPRLLIYGASNRHTGIPDRFSGSGSGTDFTLTISRLEPEDFAVYYCQQYHGGITFGGGTKVEIK | 1240 | 3530 |
| 27588 (antibody, V domains shown) VH: QVQLVQSGAEVKKPGSSVKVSCKASGGTFSNYAISWVRQAPGQGLEWMGGIIPIFGTANYAQKFQGRVTITADESTSTAYMELSSLRSEDTAVYYCARAKRGYDSYGGVYFDYWGQGTLVTVSS VL: not shown | 10 | 14 |
| 27589 (antibody, human IgG4 S228P, kappa, V domains shown) VH: QVQLVQSGAEVKKPGSSVKVSCKASGGTFSSYAISWVRQAPGQGLEWMGGIIPIFGTANYAQKFQGRVTITADESTSTAYMELSSLRSEDTAVYYCARDSGYHRHYSDYWGQGTLVTVSS VL: DIQMTQSPSTLSASVGDRVTITCRASQSISSWLAWYQQKPGKAPKLLIYKASSLESGVPSRFSGSGSGTEFTLTISSLQPDDFATYYCQQYGLFPITFGGGTKVEIKR | 311 | 531 |
| 27590 (antibody, V domains shown) VH: QVQLVQSGAEVKKPGSSVKVSCKASGGTFSNYAISWVRQAPGQGLEWMGGIIPIFGTANYAQKFQGRVTITADESTSTAYMELSSLRSEDTAVYYCARGPTVTATTSIGTHNWFDPWGQGTLVTVSS VL: EIVLTQSPATLSLSPGERATLSCRASQSVSSYLAWYQQKPGQAPRLLIYDASNRATGIPARFSGSGSGTDFTLTISSLEPEDFAVYYCQQRNFYPPTFGGGTKVEIK | 33 | 44 |
| 27596 (antibody, human IgG4 S228P, kappa, V domains shown) VH: QVQLVQSGAEVKKPGSSVKVSCKASGGTFSSYAISWVRQAPGQGLEWMGGIIPIFGTANYAQKFQGRVTITADESTSTAYMELSSLRSEDTAVYYCARDPLGIRKHWFDPWGQGTLVTVSS VL: EIVMTQSPATLSLSPGERATLSCRASQSVSSYLAWYQQKPGQAPRLLIYDASNRATGIPARFSGSGSGTDFTLTISSLEPEDFAVYYCQQHTVWPITFGGGTKVEIKR | 252 | 257 |
| 27597 (antibody, human IgG4 S228P, kappa, V domains shown) VH: QVQLVQSGAEVKKPGSSVKVSCKASGGTFSSYAISWVRQAPGQGLEWMGSIIPIFGTANYAQKFQGRVTITADESTSTAYMELSSLRSEDTAVYYCAREGRGYDSSRYYKFWFDPWGQGTLVTVSS VL: EIVLTQSPATLSLSPGERATLSCRASQSVSSYLAWYQQKPGQAPRLLIYDASNRATGIPARFSGSGSGTDFTLTISSLEPEDFAVYYCQQFVLWPRTFGGGTKVEIKR | 799 | 908 |
| 28347 (antibody, V domains shown) VH: QVQLVQSGAEVKKPGSSVKVSCKASGGTFSSLAISWVRQAPGQGLEWMGGIIPIFGTANYAQKFQGRVTITADESTNTAYMELSSLRSEDTAVYYCARGGAKYASTYGMDVWGQGTTVTVSS VL: not shown | 1020 | 1340 |
| 31393 (antibody, human IgG4 S228P, kappa, V domains shown) VH: QVQLVQSGAEVKKPGSSVKVSCKASGGTFESYGISWVRQAPGQGLEWMGSIIPEFGIANYAQKFQGRVTITADESTSTTYMELSSLRSEDTAVYYCARESGGYRDHRLDVWGQGTMVTVSS VL: EIVMTQSPATLSVSPGERATLSCRASQSVGSNLAWYQQKPGQAPRLLIYGASTRATGIPARFSGSGSGTEFTLTISSLQSEDFAVYYCQQYLLWPLTFGGGTKVEIKR | 1060 | 2960 |
| 31861 (antibody, human IgG4 S228P, kappa, V domains shown) VH: QVQLVQSGAEVKKPGSSVKVSCKASGGTFGSYGISWVRQAPGQGLEWMGSIIPEFGIANYAQKFQGRVTITADESTSTAYMELSSLRSEDTAVYYCARESGTYRDHRLDVWGQGTMVTVSS VL: EIVMTQSPATLSVSPGERATLSCRASQSVGSNLAWYQQKPGQAPRLLIYGASTRATGIPARFSGSGSGTEFTLTISSLQSEDFAVYYCQQYLLWPLTFGGGTKVEIKR | 1430 | 5480 |
| 31415 (antibody, human IgG4 S228P, kappa, V domains shown) VH: QVQLVQSGAEVKKPGASVKVSCKASGYTFTSYQMHWVRQAPGQGLEWMGRINPSGGSTWYAQKFQGRVTMTRDTSTSTVYMELSSLRSEDTAVYYCARGKREGGTEYLRSWGQGTLVTVSS VL: EIVLTQSPGTLSLSPGERATLSCRASQSVSSSYLAWYQQKPGQAPRLLIYGASSRATGIPDRFSGSGSGTDFTLTISRLEPEDFAVYYCQQYHSYITFGGGTKVEIKR | 1170 | 3360 |
| 31430 (antibody, human IgG4 S228P, kappa, V domains shown) VH: QVQLVQSGAEVKKPGASVKVSCKASGYTFKSYEMHWVRQAPGQGLEWMGRINPSGGSTWYAQKFQGRVTMTRDTSTSTVYMELSSLRSEDTAVYYCARGKREGGTEYLRHWGQGTLVTVSS VL: EIVLTQSPGTLSLSPGERATLSCEASQSVSYSYLAWYQQKPGQAPRLLIYGASSRANGIPDRFSGSGSGTDFTLTISRLEPEDFAVYYCQQYHSALTFGGGTKVEIKR | 1220 | 3570 |
| 31891 (antibody, human IgG4 S228P, kappa, V domains shown) VH: QVQLVQSGAEVKKPGASVKVSCKASGYIFKSYEMHWVRQAPGQGLEWMGRINPSVGSTWYAQKFQGRVTMTRDTSTSTVYMELSSLRSEDTAVYYCARGKREGGTEYLRVWGQGTLVTVSS VL: EIVLTQSPGTLSLSPGERATLSCRASQSVSSSYLAWYQQKPGQAPRLLIYYASSRAYGIPDRFSGSGSGTDFTLTISRLEPEDFAVYYCQQYHNAITFGGGTKVEIKR | 1030 | 4650 |
| 31896 (antibody, V domains shown) VH: QVQLVQSGAEVKKPGSSVKVSCKASGGTFSKLAISWVRQAPGQGLEWMGGIGFGTANYAQKFQGRVTITADESASTAYMELSSLRSEDTAVYYCARGGAKYASTHGMDVWGQGTTVTVSS VL: not shown | 1040 | 4540 |
| 31915 (antibody, human IgG4 S228P, kappa, V domains shown) VH: QVQLVQSGAEVKKPGSSVKVSCKASGGTFSSLPISWVRQAPGQGLEWMGGIGFGTANYAQKFQGRVTITADESTSTAYMELSSLRSEDTAVYYCARGGAKYASKWGMDVWGQGTTVTVSS VL: not shown | 1090 | 4580 |
